{"source": "patent US7276363B2", "about": "“Nucleic acid molecules encoding red and green emitting luciferases” (Toyo Boseki Kabushiki Kaisha, priority 1998, dated 2007)", "molecules": {"B1": {"name": "Phrixothrix hirtus red light-emitting luciferase PhRE, recombinant, wild type, SEQ ID NO: 4 (Phrixothrix hirtus) (protein)", "chain": "MEEENIVNGDRPRDLVFPGTAGLQLYQSLYKYSYITDGIIDAHTNEVISYAQIFETSCRLAVSLEKYGLDHNNVVAICSENNIHFFGPLIAALYQGIPMATSNDMYTEREMIGHLNISKPCLMFCSKKSLPFILKVQKHLDFLKKVIVIDSMYDINGVECVFSFVSRYTDHAFDPVKFNPKEFDPLERTALIMTSSGTTGLPKGVVISHRSITIRFVHSSDPIYGTRIAPDTSILAIAPFHHAFGLFTALAYFPVGLKIVMVKKFEGEFFLKTIQNYKIASIVVPPPIMVYLAKSPLVDEYNLSSLTEIACGGSPLGRDIADKVAKRLKVHGILQGYGLTETCSALILSPNDRELKKGAIGTPMPYVQVKVIDINTGKALGPREKGEICFKSQMLMKGYHNNPQATRDALDKDGWLHTGDLGYYDEDRFIYVVDRLKELIKYKGYQVAPAELENLLLQHPNISDAGVIGIPDEFAGQLPSACVVLEPGKTMTEKEVQDYIAELVTTTKHLRGGVVFIDSIPKGPTGKLMRNELRAIFAREQAKSKL"}, "B2": {"name": "PhRE: recombinant red light-emitting luciferase of Phrixothrix hirtus head lanterns, 546 amino acid residues (protein, listed as Phrixothrix hirtus)", "chain": "MEEENVVNGDRPRDLVFPGTAGLQLYQSLYKYSYITDGIIDAHTNEVISYAQIFETSCRLAVSLEKYGLDHNNVVAICSENNIHFFGPLIAALYQGIPMATSNDMYTEREMIGHLNISKPCLMFCSKKSLPFILKVQKHLDFLKRVIVIDSMYDINGVECVFSFDSRNTDHAFDPVKFNPKEFDPLERTALIMTSSGTTGLPKGVVISHRSITIRFVHSSDPIYGTRIAPDTSILAIAPFHHAFGLFTALAYFPVGLKIVMVKKFEGEFFLKTIQNYKIASIVVPPPIMVYLAKSPLVDEYNCSSLTEIASGGSPLGRDIADKVAKRLKVHGILQGYGLTETCSALILSPNDRELKKGAIGTPMPYVQVKVIDINTGKALGPREKGEICFKSQMLMKGYHNNPQATRDALDKDGWLHTGDLGYYDEDRFIYVVDRLKELIKYKGYQVAPAELENLLLQHPNISDAGVIEFRTNLLVNYLSACVVLEPGKTMTEKEVQDYIAELVTTTKHLRGGVVFIDSIPKGPTGKLMRNELRAIFAREQAKSKL"}, "B3": {"name": "Phrixothrix vivianii green light-emitting luciferase PvGR, recombinant, wild type, SEQ ID NO: 2 (Phrixothrix vivianii) (protein)", "chain": "MEEENIRHGERPRDIVHPGSAGQQLYQSLYKFASFPEAIIDAHTNEVISYAQIFETSCRLAVSIEQYGLNENNVVGVCSENNINFFNPVLAALYLGIPVATSNDMYTDGELTGHLNISKPTIMFSSKKALPLILRVQQNLSFIKKVVVIDSMYDINGVECVSTFVARYTDHTFDPLSFTPKDFDPLEKIALIMSSSGTTGLPKGVVLSHRSLTIRFVHSRDPIYGTRTVPQTSILSLVPFHHAFGMFTTLSYFVVGLKVVMLKKFEGALFLKTIQNYKIPTIVVAPPVMVFLAKSPLVDQYDLSSLTEVATGGAPLGKDVAEAVAKRLKLPGIIQGYGLTETCCAVMITPHNAVKTGSTGRPLPYIKAKVLDNATGKALGPGERGEICFQSEMIMKGYYNNPEATIDTIDKDGWLHSGDIGYYDEDGNFFIVDRLKELIKYKGYQVAPAELENLLLQHPSIADAGVTGVPDEFGGQLPAACVVLESGKTLTEKEVQDFIAAQVTPTKHLRGGVVFVDSIPKGPTGKLIRKELREIFAQRAPKSKL"}}, "key": {"[1]": {"substrate": "Nc1ncnc2c1ncn2[C@@H]1O[C@H](COP(=O)(O)OP(=O)(O)OP(=O)(O)O)[C@@H](O)[C@H]1O", "assay": "KM determination, PhRE luciferase (light intensity in luminometer, Lineweaver-Burk plots)", "format": "biochemical, Phrixothrix hirtus", "conditions": "other: ammonium sulfate fractionated extract, ATP 0.1-4 mM, 0.5 mM luciferin solution, 8 mM MgSO4, 0.1 M Tris-HCl, pH 8.0, 25° C.", "protocol": "(§1) Liquid cultures of SOLR cells carrying luciferase insert containing pBl were grown on LB/amp (50 μg/mL) medium at 37° C. with shaking overnight. The preculture (1/100 vol) was then inoculated in LB/amp (50 μg/mL) in the presence of 1 mM IPTG and incubated at 23° C. during 24 h (OD600=1.8). The cells were harvested by centrifugation at 3000 rpm during 10 min at 4° C., and the pellet was resuspended in cold extraction buffer (0.1 M sodium phosphate buffer, pH 7.5, containing 2 mM EDTA, 1 mM DTT, and 1% Triton X-100). Lysozyme was added to the final concentration of 1 mg/mL and the suspension incubated 15 min at 0° C. and frozen at −80° C. during 15 min. The lysate was centrifuged at 12000 g at 4° C. during 15 min. The supernatant was then fractionated with ammonium sulfate. The fraction precipitated between 55% and 70% saturation was dissolved in cold extraction buffer and stored at −20° C. in the presence of glycerol 15%, to maintain the activity.\n(§2) Measurements of light intensities for KM determinations were made using the luminometer described above. […] The assays were carried out at 25° C. Each point of the Michaelis-Menten curve was assayed in quadruplicate. The KM values were estimated by Lineweaver-Burk plots of the reciprocal of light intensities versus […]."}, "[2]": {"substrate": "O=C(O)[C@H]1CSC(c2nc3ccc(O)cc3s2)=N1", "assay": "purified protein, by the assay type", "conditions": "other: ammonium sulfate fractionated extract, luciferin 0.03-2 mM, 4 mM ATP solution, 8 mM MgSO4, 0.1 M Tris-HCl, pH 8.0, 25° C."}, "[3]": {"assay": "Luciferase assays: luminometer light output and time course", "format": "biochemical", "conditions": "for total light output: in vivo and in vitro assays of IPTG-induced colonies, corrected for spectral photosensitivity", "protocol": "The activity levels were measured using a Luminescencer AB-2000 luminometer (Atto; Tokyo, Japan) by integration of total light emitted. The assay consisted of the addition of 50 μL of standard solution (2 mM ATP, 0.5 mM D-luciferin, 4 mM MgSO4 in 0.1 M Tris-HCl buffer, pH 8.0) to 10 μL of luciferase-containing extracts at 25° C. In vivo light intensities were measured after adding 50 μL of 0.5 mM D-luciferin in 0.1 M sodium citrate buffer pH 5.0 to 10 μL of bacterial suspension into a microtiter plate."}, "[4]": {"substrate": "Nc1ncnc2c1ncn2[C@@H]1O[C@H](COP(=O)(O)OP(=O)(O)OP(=O)(O)O)[C@@H](O)[C@H]1O", "assay": "KM determination, PvGR luciferase (light intensity in luminometer, Lineweaver-Burk plots)", "format": "biochemical, Phrixothrix vivianii", "conditions": "other: ammonium sulfate fractionated extract, ATP 0.1-4 mM, 0.5 mM luciferin solution, 8 mM MgSO4, 0.1 M Tris-HCl, pH 8.0, 25° C.", "protocol": "as §1, §2"}}, "data": [{"molecule": "B1", "values": [{"measurement": "Km", "setting": "[1]", "result": 240, "unit": "µM"}, {"measurement": "Km", "setting": "[2]", "result": 20, "unit": "µM"}]}, {"molecule": "B2", "values": [{"measurement": "rise time to the peak of intensity and decay rate of in vitro bioluminescence reaction", "setting": "[3]; compared with PvGR, results not shown", "result": "faster"}, {"measurement": "total light output", "setting": "[3]", "result": "nearly the same values"}]}, {"molecule": "B3", "values": [{"measurement": "Km", "setting": "[4]", "result": 350, "unit": "µM"}, {"measurement": "total light output", "setting": "[3]", "result": "nearly the same values"}, {"measurement": "Km", "setting": "[2]", "result": 150, "unit": "µM"}]}]}
